{
  "source": "patent US20250197482A1",
  "about": "(UNITED STATES OF AMERICA AS REPRESENTED BY THE SECRETARY …, published 2025)",
  "key": {"[1]": {"target": "HIV-1 Env of strain WITO.33 (Env-pseudotyped virus) (HIV-1)", "experiment": "cell-based or functional assay"}, "CAP256 wk34c80": {"target": "CAP256 wk34c80 (HIV-1)", "experiment": "cell-based or functional assay"}},
  "data": [
    {"binder": "CAP256V2LS-J3-6 (bispecific antibody) heavy chain: not shown light chain (J3 VHH, linker, CAP256V2LS LC): EVQLVESGGGLVQAGGFLRLSCELRGSIFNQYAMAWFRQAPGKEREFVAGMGAVPHYGEFVKGRFTISRDNAKSTVYLQMSSLKPEDTAIYFCARSKSTYISYNSNGYDYWGRGTQVTVSSDKTHTGDKTHTGDKTHTQSVLTQPPSVSAAPGQKVTISCSGNTSNIGNNFVSWYQQRPGRAPQLLIYETDKRPSGIPDRFSASKSGTSGTLAITGLQTGDEADYYCATWAASLSSARVFGTGTQVIVLGQPKVNPTVTLFPPSSEELQANKATLVCLISDFYPGAVTVAWKADSSPVKAGVETTTPSKQSNNKYAASSYLSLTPEQWKSHRSYSCQVTHEGSTVEKTVAPTECS", "values": [
      {"measurement": "% neutralization, single point, Env-pseudotyped virus on TZM-bl", "setting": "[1]", "result": 48, "unit": "%"},
      {"measurement": "% neutralization, single point, Env-pseudotyped virus on TZM-bl", "setting": "CAP256 wk34c80", "result": 100, "unit": "%"}
    ]},
    {"binder": "CAP256V2LS-10E8-1 (bispecific antibody) heavy chain: not shown light chain (10E8v4 scFv, linker, CAP256V2LS LC): EVRLVESGGGLVKPGGSLRLSCSASGFDFDNAWMTWVRQPPGKGLEWVGRITGPGEGWSVDYAESVKGRFTISRDNTKNTLYLEMNNVRTEDTGYYFCARTGKYYDFWSGYPPGEEYFQDWGQGTLVIVSSGGGGSGGGGSGGGGSSELTQDPAVSVALKQTVTITCRGDSLRSHYASWYQKKPGQAPVLLFYGKNNRPSGIPDRFSGSASGNRASLTITGAQAEDEADYYCSSRDKSGSRLSVFGGGTKLTVGGSGGQSVLTQPPSVSAAPGQKVTISCSGNTSNIGNNFVSWYQQRPGRAPQLLIYETDKRPSGIPDRFSASKSGTSGTLAITGLQTGDEADYYCATWAASLSSARVFGTGTQVIVLGQPKVNPTVTLFPPSSEELQANKATLVCLISDFYPGAVTVAWKADSSPVKAGVETTTPSKQSNNKYAASSYLSLTPEQWKSHRSYSCQVTHEGSTVEKTVAPTECS", "values": [
      {"measurement": "% neutralization, single point, Env-pseudotyped virus on TZM-bl", "setting": "[1]", "result": 14, "unit": "%"},
      {"measurement": "% neutralization, single point, Env-pseudotyped virus on TZM-bl", "setting": "CAP256 wk34c80", "result": 98, "unit": "%"}
    ]},
    {"binder": "CAP256V2LS-J3-5 (bispecific antibody) heavy chain: not shown light chain (J3 VHH, linker, CAP256V2LS LC): EVQLVESGGGLVQAGGFLRLSCELRGSIFNQYAMAWFRQAPGKEREFVAGMGAVPHYGEFVKGRFTISRDNAKSTVYLQMSSLKPEDTAIYFCARSKSTYISYNSNGYDYWGRGTQVTVSSDKTHTGDKTHTQSVLTQPPSVSAAPGQKVTISCSGNTSNIGNNFVSWYQQRPGRAPQLLIYETDKRPSGIPDRFSASKSGTSGTLAITGLQTGDEADYYCATWAASLSSARVFGTGTQVIVLGQPKVNPTVTLFPPSSEELQANKATLVCLISDFYPGAVTVAWKADSSPVKAGVETTTPSKQSNNKYAASSYLSLTPEQWKSHRSYSCQVTHEGSTVEKTVAPTECS", "values": [
      {"measurement": "% neutralization, single point, Env-pseudotyped virus on TZM-bl", "setting": "[1]", "result": 62, "unit": "%"},
      {"measurement": "% neutralization, single point, Env-pseudotyped virus on TZM-bl", "setting": "CAP256 wk34c80", "result": 100, "unit": "%"}
    ]},
    {"binder": "CAP256V2LS-10E8-2 (bispecific antibody) heavy chain: not shown light chain (10E8v4 scFv, linker, CAP256V2LS LC): EVRLVESGGGLVKPGGSLRLSCSASGFDFDNAWMTWVRQPPGKGLEWVGRITGPGEGWSVDYAESVKGRFTISRDNTKNTLYLEMNNVRTEDTGYYFCARTGKYYDFWSGYPPGEEYFQDWGQGTLVIVSSGGGGSGGGGSGGGGSSELTQDPAVSVALKQTVTITCRGDSLRSHYASWYQKKPGQAPVLLFYGKNNRPSGIPDRFSGSASGNRASLTITGAQAEDEADYYCSSRDKSGSRLSVFGGGTKLTVGGSGGGGSGGQSVLTQPPSVSAAPGQKVTISCSGNTSNIGNNFVSWYQQRPGRAPQLLIYETDKRPSGIPDRFSASKSGTSGTLAITGLQTGDEADYYCATWAASLSSARVFGTGTQVIVLGQPKVNPTVTLFPPSSEELQANKATLVCLISDFYPGAVTVAWKADSSPVKAGVETTTPSKQSNNKYAASSYLSLTPEQWKSHRSYSCQVTHEGSTVEKTVAPTECS", "values": [
      {"measurement": "% neutralization, single point, Env-pseudotyped virus on TZM-bl", "setting": "[1]", "result": 45, "unit": "%"},
      {"measurement": "% neutralization, single point, Env-pseudotyped virus on TZM-bl", "setting": "CAP256 wk34c80", "result": 91, "unit": "%"}
    ]}
  ]
}
